Patent publication US20140107021A1 (priority 2010, published 2014)
Read-outs that look alike come from different tables or passages of the source. Bridge positions count the residues as written; N and C are the ends. Square brackets hold non-standard residues; d marks the D form. Side chains are listed from the residue outwards. Ends that are not written are not given here. Peptide text beside a SMILES is read from it. PEG40kDa = 40 kDa polyethylene glycol; Ac‑Cys = acetylated cysteine; Aib = CC(C)(N)C(=O)O

What was measured:
glucagon receptor [1] = molecular target: T1, glucagon receptor (Homo sapiens, UniProt P47871); assay: cell-based
From the text: (§1) HEK293 cells co-transfected with the receptor and luciferase gene linked to a cAMP responsive element were employed for the bioassay.
(§2) All EC50s and IC50s are reported in the following examples in nM, unless indicated otherwise.

glucagon receptor [2] = molecular target: T1, glucagon receptor; assay: glucagon receptor binding; set-up: expressed in transfected cells; host or cells: HEK293
glucagon receptor [3] = molecular target: T1, glucagon receptor; assay: cAMP induction at the glucagon receptor (agonist activity), luciferase reporter assay in HEK293 cells; format: cell-based; set-up: expressed in transfected cells; host or cells: HEK293; details: for EC50 / GR relative activity: Table 5; for EC50: read-out: GR EC50; for GR relative activity: relative to standard
From the text: as §1, §2

GIP receptor = molecular target: T2, GIP receptor (Homo sapiens, UniProt P48546); assay: cAMP induction at the GIP receptor (agonist activity), luciferase reporter assay in HEK293 cells; format: cell-based; details: for GIPR relative activity: Table 5, relative to standard
T2 construct: expressed in transfected cells; host or cells: HEK293
T2 sequence (P48546 22-466): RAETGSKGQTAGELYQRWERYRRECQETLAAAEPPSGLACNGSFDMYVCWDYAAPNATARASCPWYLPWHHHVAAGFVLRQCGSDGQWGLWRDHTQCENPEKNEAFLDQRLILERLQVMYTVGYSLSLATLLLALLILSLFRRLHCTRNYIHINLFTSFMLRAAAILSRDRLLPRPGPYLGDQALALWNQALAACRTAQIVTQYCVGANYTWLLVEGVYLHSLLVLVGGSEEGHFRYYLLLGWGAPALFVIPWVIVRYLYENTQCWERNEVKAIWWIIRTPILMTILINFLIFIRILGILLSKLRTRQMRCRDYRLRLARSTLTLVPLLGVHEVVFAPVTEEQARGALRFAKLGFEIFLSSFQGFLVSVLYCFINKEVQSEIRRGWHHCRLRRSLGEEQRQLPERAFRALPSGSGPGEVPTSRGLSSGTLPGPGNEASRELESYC
From the text: as §1, §2

GLP-1 receptor = molecular target: T3, GLP-1 receptor (Homo sapiens, UniProt P43220); assay: cAMP induction at the GLP-1 receptor (agonist activity), firefly luciferase reporter assay in HEK293 cells; format: cell-based; details: for GLP-1R relative activity: Table 5, relative to standard
T3 construct: expressed in transfected cells; host or cells: HEK293
From the text: as §1, §2

[4] = Table G, average ±STD of at least three experiments, same values as receptor binding in Table I, read-out: IC50
[5] = Table E, read-out: Receptor Binding IC50

T3 sequence (P43220 24-463): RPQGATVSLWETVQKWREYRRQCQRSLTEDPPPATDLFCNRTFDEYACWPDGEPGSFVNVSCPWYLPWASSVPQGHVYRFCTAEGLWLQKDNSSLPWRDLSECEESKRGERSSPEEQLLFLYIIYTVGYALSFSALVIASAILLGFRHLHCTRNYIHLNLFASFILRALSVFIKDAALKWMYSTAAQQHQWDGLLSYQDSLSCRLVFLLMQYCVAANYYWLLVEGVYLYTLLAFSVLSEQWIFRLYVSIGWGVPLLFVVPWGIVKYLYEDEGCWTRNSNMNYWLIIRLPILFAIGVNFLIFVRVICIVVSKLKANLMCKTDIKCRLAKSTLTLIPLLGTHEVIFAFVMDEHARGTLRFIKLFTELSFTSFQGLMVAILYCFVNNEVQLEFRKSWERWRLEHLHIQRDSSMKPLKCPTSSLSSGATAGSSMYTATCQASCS
T1 sequence (P47871 26-477): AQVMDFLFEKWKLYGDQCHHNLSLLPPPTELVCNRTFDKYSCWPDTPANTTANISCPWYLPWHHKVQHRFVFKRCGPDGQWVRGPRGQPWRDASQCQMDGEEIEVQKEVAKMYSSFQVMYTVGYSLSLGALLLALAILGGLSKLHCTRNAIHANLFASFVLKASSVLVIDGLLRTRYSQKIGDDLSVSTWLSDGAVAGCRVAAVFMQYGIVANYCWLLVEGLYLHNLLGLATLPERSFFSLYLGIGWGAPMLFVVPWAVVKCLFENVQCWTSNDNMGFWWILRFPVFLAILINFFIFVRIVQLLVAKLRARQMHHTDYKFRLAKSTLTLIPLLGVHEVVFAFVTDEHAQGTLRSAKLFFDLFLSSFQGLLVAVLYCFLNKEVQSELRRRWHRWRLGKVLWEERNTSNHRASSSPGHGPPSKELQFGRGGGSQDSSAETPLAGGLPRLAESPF

Row | Molecule | EC50 (glucagon receptor [3]) [nM] | GR relative activity (glucagon receptor [3]) [%] | GIPR relative activity (GIP receptor) | GLP-1R relative activity (GLP-1 receptor) [%] | other results
1 | CSCC[C@H](NC(=O)[C@H](CC(C)C)NC(=O)[C@H](Cc1c[nH]c2ccccc12)NC(=O)[C@H](CCC(N)=O)NC(=O)[C@@H](NC(=O)[C@H](Cc1ccccc1)NC(=O)[C@H](CC(=O)O)NC(=O)[C@H](CCC(N)=O)NC(=O)[C@H](C)NC(=O)[C@H](CCCNC(=N)N)NC(=O)[C@H](CCCNC(=N)N)NC(=O)[C@H](CO)NC(=O)[C@H](CC(=O)O)NC(=O)[C@H](CC(C)C)NC(=O)[C@H](Cc1ccc(O)cc1)NC(=O)[C@H](CCCCN)NC(=O)[C@H](CO)NC(=O)[C@H](Cc1ccc(O)cc1)NC(=O)[C@H](CCCC(=O)O)NC(=O)[C@H](CO)NC(=O)[C@@H](NC(=O)[C@@H](N)Cc1ccccc1)[C@@H](C)O)C(C)C)C(=O)N[C@@H](CC(N)=O)C(=O)N[C@H](C(N)=O)[C@@H](C)O [(hGlu^9]Glucagon(aa6-29)-NH2] (HELM PEPTIDE1{F.T.S.[O=C(O)CCC[C@H](N[*:1])C(=O)[*:2]].Y.S.K.Y.L.D.S.R.R.A.Q.D.F.V.Q.W.L.M.N.T.[am]}$$$$V2.0; N-terminus assumed) |  |  |  |  | Kb (glucagon receptor [1]): 537 nM; cAMP pA2 (glucagon receptor [1]; Table I): 6.27 ± 0.11; IC50 (glucagon receptor [2]; [4]): 163 ± 70.8 nM
2 | CC(C)C[C@H](NC(=O)[C@H](Cc1ccc(O)cc1)NC(=O)[C@H](CCCCN)NC(=O)[C@H](CO)NC(=O)[C@H](Cc1ccc(O)cc1)NC(=O)[C@H](CCS(=O)(=O)O)NC(=O)[C@H](CO)NC(=O)[C@@H](NC(=O)[C@H](Cc1ccccc1)NC(=O)[C@@H](NC(=O)CNC(=O)[C@H](CCC(N)=O)NC(=O)[C@@H](N)CO)[C@@H](C)O)[C@@H](C)O)C(=O)N[C@@H](CC(=O)O)C(=O)N[C@@H](CO)C(=O)N[C@@H](CCCNC(=N)N)C(=O)N[C@@H](CCCNC(=N)N)C(=O)N[C@@H](C)C(=O)N[C@@H](CCC(N)=O)C(=O)N[C@@H](CC(=O)O)C(=O)N[C@@H](Cc1ccccc1)C(=O)N[C@H](C(=O)N[C@@H](CCC(N)=O)C(=O)N[C@@H](Cc1ccccc1)C(=O)N[C@@H](CC(C)C)C(=O)N[C@@H](CC(C)C)C(=O)N[C@@H](CC(N)=O)C(=O)N[C@H](C(N)=O)[C@@H](C)O)C(C)C [[desIIis^1, hCys^9(SO3—), Phe^25, Leu^27]Glucagon-NH2] (HELM PEPTIDE1{S.Q.G.T.F.T.S.[O=C([C@H](CCS(=O)(=O)O)N[*:1])[*:2]].Y.S.K.Y.L.D.S.R.R.A.Q.D.F.V.Q.F.L.L.N.T.[am]}$$$$V2.0; N-terminus assumed) |  |  |  |  | IC50 (glucagon receptor [2]; [5]): 13.9 ± 0.37 nM
3 | CSCC[C@H](NC(=O)[C@H](CC(C)C)NC(=O)[C@H](Cc1c[nH]c2ccccc12)NC(=O)[C@H](CCC(N)=O)NC(=O)[C@@H](NC(=O)[C@H](Cc1ccccc1)NC(=O)[C@H](CC(=O)O)NC(=O)[C@H](CCC(N)=O)NC(=O)[C@H](C)NC(=O)[C@H](CCCNC(=N)N)NC(=O)[C@H](CCCNC(=N)N)NC(=O)[C@H](CO)NC(=O)[C@H](CC(=O)O)NC(=O)[C@H](CC(C)C)NC(=O)[C@H](Cc1ccc(O)cc1)NC(=O)[C@H](CCCCN)NC(=O)[C@H](CO)NC(=O)[C@H](Cc1ccc(O)cc1)NC(=O)[C@H](CCS(=O)(=O)O)NC(=O)[C@H](CO)NC(=O)[C@@H](NC(=O)[C@H](Cc1ccccc1)NC(=O)[C@@H](NC(=O)CNC(=O)[C@H](CCC(N)=O)NC(=O)[C@@H](N)CO)[C@@H](C)O)[C@@H](C)O)C(C)C)C(=O)N[C@@H](CC(N)=O)C(=O)N[C@H](C(N)=O)[C@@H](C)O [[hCys^9(SO3H)]Glucagon(aa2-29)-NH2] |  |  |  |  | IC50 (glucagon receptor [2]; Table H, same values as receptor binding in Table I, read-out: IC50): 13.2 ± 1 nM
4 | H-LTFTSEYSKYLDSRRAQDFVQWLMNT-NH2 [[Leu^4, Glu^9]Glucagon(aa4-29)-NH2] |  |  |  |  | IC50 (glucagon receptor [2]; [4]): 36.4 ± 8.69 nM
5 | SQGTTSDYSKYLDSRRAQDFVQWLMNT-NH2 [[desHis^1, desPhe^6]Glucagon-NH2] |  |  |  |  | IC50 (glucagon receptor [2]; [5]): 130 ± 44.9 nM
6 | TSEYSKYLDSRRAQDFVQWLMNT-NH2 [[Glu^9]Glucagon(aa7-29)-NH2] |  |  |  |  | IC50 (glucagon receptor [2]; [4]): > 10000 nM
7 | Y1Aib2I7I12K16Q17A18Aib20E21N24-LAG27-29-CEX-K (YXQGTFISDYSIYLDKQAAXEFVNWLLAGGPSSGAPPPSK; HELM PEPTIDE1{Y.[Aib].Q.G.T.F.I.S.D.Y.S.I.Y.L.D.K.Q.A.A.[Aib].E.F.V.N.W.L.L.A.G.G.P.S.S.G.A.P.P.P.S.K.[am]}$$$$V2.0; N-terminus assumed; SMILES CC[C@H](C)[C@H](NC(=O)[C@H](CO)NC(=O)[C@H](Cc1ccc(O)cc1)NC(=O)[C@H](CC(=O)O)NC(=O)[C@H](CO)NC(=O)[C@@H](NC(=O)[C@H](Cc1ccccc1)NC(=O)[C@@H](NC(=O)CNC(=O)[C@H](CCC(N)=O)NC(=O)C(C)(C)NC(=O)[C@@H](N)Cc1ccc(O)cc1)[C@@H](C)O)[C@@H](C)CC)C(=O)N[C@@H](Cc1ccc(O)cc1)C(=O)N[C@@H](CC(C)C)C(=O)N[C@@H](CC(=O)O)C(=O)N[C@@H](CCCCN)C(=O)N[C@@H](CCC(N)=O)C(=O)N[C@@H](C)C(=O)N[C@@H](C)C(=O)NC(C)(C)C(=O)N[C@@H](CCC(=O)O)C(=O)N[C@@H](Cc1ccccc1)C(=O)N[C@H](C(=O)N[C@@H](CC(N)=O)C(=O)N[C@@H](Cc1c[nH]c2ccccc12)C(=O)N[C@@H](CC(C)C)C(=O)N[C@@H](CC(C)C)C(=O)N[C@@H](C)C(=O)NCC(=O)NCC(=O)N1CCC[C@H]1C(=O)N[C@@H](CO)C(=O)N[C@@H](CO)C(=O)NCC(=O)N[C@@H](C)C(=O)N1CCC[C@H]1C(=O)N1CCC[C@H]1C(=O)N1CCC[C@H]1C(=O)N[C@@H](CO)C(=O)N[C@@H](CCCCN)C(N)=O)C(C)C) [MT-357] |  |  |  |  | % Relative Activity at GR (glucagon receptor [3]; Table 8): 170%; % Relative Activity at GIPR (GIP receptor; Table 8): 198%; % Relative Activity GLP-1R (GLP-1 receptor; Table 8): 0.81%
8 | mt-217: lactam 16-20 glucagon analog, Lys24 carrying Ala spacer, acetylated Cys and 40 kDa PEG; SEQ ID NO: 19 (Y[Aib]QGTFTSDYSIYLDEQAAKEFVK([Ala-Ac‑Cys-PEG40kDa])FLLAGGPSSGAPPPS-NH2; lactam 16-20) | 13.9 | 0.82 | 0.20% | 11.26 | 
9 | mt-218: as mt-217 with Glu as the amino acid spacer; SEQ ID NO: 20 (Y[Aib]QGTFTSDYSIYLDEQAAKEFVK([Glu-Ac‑Cys-PEG40kDa])FLLAGGPSSGAPPPS-NH2; lactam 16-20) | 16.3 | 0.70 | 0.13% | 7.40 | 
10 | mt-219: as mt-217 with Arg as the amino acid spacer; SEQ ID NO: 21 (Y[Aib]QGTFTSDYSIYLDEQAAKEFVK([Arg-Ac‑Cys-PEG40kDa])FLLAGGPSSGAPPPS-NH2; lactam 16-20) | 17.6 | 0.65 | .31% | 16.56 | 
11 | mt-220: as mt-217 with Phe as the amino acid spacer; SEQ ID NO: 22 (Y[Aib]QGTFTSDYSIYLDEQAAKEFVK([Phe-Ac‑Cys-PEG40kDa])FLLAGGPSSGAPPPS-NH2; lactam 16-20) | 9.67 | 1.18 | 0.19% | 13.89 | 
12 | mt-225: as mt-217 but modified Lys at position 40 and Asn at position 24; SEQ ID NO: 359 (Y[Aib]QGTFTSDYSIYLDEQAAKEFVNWLLAGGPSSGAPPPSK([Ala-Ac‑Cys-PEG40kDa])-NH2; lactam 16-20) | 2.71 | 1.99 | 0.90% | 29.59 | 
13 | mt-226: as mt-218 but modified Lys at position 40 and Asn at position 24; SEQ ID NO: 23 (Y[Aib]QGTFTSDYSIYLDEQAAKEFVNWLLAGGPSSGAPPPSK([Glu-Ac‑Cys-PEG40kDa])-NH2; lactam 16-20) | 3.46 | 1.56 | 1.16% | 29.90 | 
14 | mt-227: as mt-219 but modified Lys at position 40 and Asn at position 24; SEQ ID NO: 360 (Y[Aib]QGTFTSDYSIYLDEQAAKEFVNWLLAGGPSSGAPPPSK([Arg-Ac‑Cys-PEG40kDa])-NH2; lactam 16-20) | 4.24 | 1.27 | 1.29% | 36.25 | 
15 | mt-228: as mt-220 but modified Lys at position 40 and Asn at position 24; SEQ ID NO: 24 (Y[Aib]QGTFTSDYSIYLDEQAAKEFVNWLLAGGPSSGAPPPSK([Phe-Ac‑Cys-PEG40kDa])-NH2; lactam 16-20) | 5.36 | 1.01 | 0.75% | 19.86 | 
